US20130011380A1
One block for each substance: values may come before it.

What was measured:
Experiment in all cases: anti-Flag IP-MS, mES nuclear extract
Atxn2l (mouse) = Atxn2l (mouse) (UniProt Q7TQH0)
Canx (mouse) = Canx (mouse) (UniProt P35564)
Cbx5 (mouse) = Cbx5 (mouse) (UniProt Q61686)
Cct7 (mouse) = Cct7 (mouse) (UniProt P80313)
Cct8 (mouse) = Cct8 (mouse) (UniProt P42932)
Copa (mouse) = Copa (mouse) (UniProt Q8CIE6)
Cul4b (mouse) = Cul4b (mouse) (UniProt A2A432)
Emd (mouse) = Emd (mouse) (UniProt O08579)
Eno2 (mouse) = Eno2 (mouse) (UniProt P17183)
Gart (mouse) = Gart (mouse) (UniProt Q64737)
Gcn1l1 (mouse) = Gcn1l1 (mouse) (UniProt E9PVA8)
Hells (mouse) = Hells (mouse) (UniProt Q60848)
Hmga1 (mouse) = Hmga1 (mouse) (UniProt P17095)
Hspa5 (mouse) = Hspa5 (mouse) (UniProt P20029)
Mcm2 (mouse) = Mcm2 (mouse) (UniProt P97310)
Mcm3 (mouse) = Mcm3 (mouse) (UniProt P25206)
Mllt4 (mouse) = Mllt4 (mouse) (UniProt Q9QZQ1)
Nars (mouse) = Nars (mouse) (UniProt Q8BP47)
Nasp (mouse) = Nasp (mouse) (UniProt Q99MD9)
Ncapd2 (mouse) = Ncapd2 (mouse) (UniProt Q8K2Z4)
Nsd1 (mouse) = Nsd1 (mouse) (UniProt O88491)
Nup188 (mouse) = Nup188 (mouse) (UniProt Q6ZQH8)
Nup214 (mouse) = Nup214 (mouse) (UniProt Q80U93)
Pcbp1 (mouse) = Pcbp1 (mouse) (UniProt P60335)
Peg10 (mouse) = Peg10 (mouse) (UniProt Q7TN75)
Pfn1 (mouse) = Pfn1 (mouse) (UniProt P62962)
Prpf4b (mouse) = Prpf4b (mouse) (UniProt Q61136)
Racgap1 (mouse) = Racgap1 (mouse) (UniProt Q9WVM1)
Rbm25 (mouse) = Rbm25 (mouse) (UniProt B2RY56)
Rcc1 (mouse) = Rcc1 (mouse) (UniProt Q8VE37)
Rif1 (mouse) = Rif1 (mouse) (UniProt Q6PR54)
Sfrs17b (mouse) = Sfrs17b (mouse) (UniProt A2A3V1)
Smarcc1 (mouse) = Smarcc1 (mouse) (UniProt P97496)
Smc3 (mouse) = Smc3 (mouse) (UniProt Q9CW03)
Smc4 (mouse) = Smc4 (mouse) (UniProt Q8CG47)
Ssrp1 (mouse) = Ssrp1 (mouse) (UniProt Q08943)
Tmem48 (mouse) = Tmem48 (mouse) (UniProt Q8VCB1)
Ttf1 (mouse) = Ttf1 (mouse) (UniProt Q62187)
Uba2 (mouse) = Uba2 (mouse) (UniProt Q9Z1F9)
Xpo1 (mouse) = Xpo1 (mouse) (UniProt Q6P5F9)

Chain of Mcm2 (mouse) (P97310 2-904 limits assumed): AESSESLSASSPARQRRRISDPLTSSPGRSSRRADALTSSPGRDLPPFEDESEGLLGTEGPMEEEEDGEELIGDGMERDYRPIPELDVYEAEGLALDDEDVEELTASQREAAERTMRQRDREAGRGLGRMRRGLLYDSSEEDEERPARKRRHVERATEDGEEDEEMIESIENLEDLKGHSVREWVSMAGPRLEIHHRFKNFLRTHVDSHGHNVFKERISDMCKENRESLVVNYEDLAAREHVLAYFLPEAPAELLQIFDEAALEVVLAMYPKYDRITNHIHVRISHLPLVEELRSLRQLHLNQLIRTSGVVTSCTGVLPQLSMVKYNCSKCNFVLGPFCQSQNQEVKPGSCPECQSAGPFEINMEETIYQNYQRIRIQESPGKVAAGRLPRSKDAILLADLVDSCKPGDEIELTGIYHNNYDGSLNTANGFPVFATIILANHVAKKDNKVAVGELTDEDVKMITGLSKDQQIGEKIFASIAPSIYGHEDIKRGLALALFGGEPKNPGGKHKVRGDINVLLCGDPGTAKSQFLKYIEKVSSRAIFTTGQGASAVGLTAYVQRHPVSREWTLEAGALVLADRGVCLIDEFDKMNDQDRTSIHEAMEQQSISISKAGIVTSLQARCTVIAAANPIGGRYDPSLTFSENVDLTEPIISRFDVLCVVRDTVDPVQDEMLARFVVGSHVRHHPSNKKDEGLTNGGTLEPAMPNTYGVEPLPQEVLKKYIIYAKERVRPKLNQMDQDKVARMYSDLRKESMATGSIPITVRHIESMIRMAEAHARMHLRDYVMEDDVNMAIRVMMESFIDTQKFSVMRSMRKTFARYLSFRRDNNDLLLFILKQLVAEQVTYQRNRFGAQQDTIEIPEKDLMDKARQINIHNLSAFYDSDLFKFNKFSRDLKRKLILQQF
Chain of Cct7 (mouse) (P80313 whole entry): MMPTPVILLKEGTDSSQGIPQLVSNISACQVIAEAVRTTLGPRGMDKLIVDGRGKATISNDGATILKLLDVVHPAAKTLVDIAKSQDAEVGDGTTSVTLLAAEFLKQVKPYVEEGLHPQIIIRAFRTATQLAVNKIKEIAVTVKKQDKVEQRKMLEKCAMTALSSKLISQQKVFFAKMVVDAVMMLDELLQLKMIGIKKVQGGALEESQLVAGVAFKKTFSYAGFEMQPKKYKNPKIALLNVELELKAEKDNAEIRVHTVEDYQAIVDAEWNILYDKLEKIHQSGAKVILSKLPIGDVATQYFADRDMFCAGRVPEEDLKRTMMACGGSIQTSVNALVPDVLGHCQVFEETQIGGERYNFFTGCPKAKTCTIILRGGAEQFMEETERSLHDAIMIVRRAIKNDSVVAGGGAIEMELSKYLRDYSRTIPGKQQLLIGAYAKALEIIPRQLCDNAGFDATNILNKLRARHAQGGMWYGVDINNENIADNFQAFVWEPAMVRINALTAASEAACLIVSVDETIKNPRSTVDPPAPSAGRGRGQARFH
Chain of Copa (mouse) (Q8CIE6 whole entry): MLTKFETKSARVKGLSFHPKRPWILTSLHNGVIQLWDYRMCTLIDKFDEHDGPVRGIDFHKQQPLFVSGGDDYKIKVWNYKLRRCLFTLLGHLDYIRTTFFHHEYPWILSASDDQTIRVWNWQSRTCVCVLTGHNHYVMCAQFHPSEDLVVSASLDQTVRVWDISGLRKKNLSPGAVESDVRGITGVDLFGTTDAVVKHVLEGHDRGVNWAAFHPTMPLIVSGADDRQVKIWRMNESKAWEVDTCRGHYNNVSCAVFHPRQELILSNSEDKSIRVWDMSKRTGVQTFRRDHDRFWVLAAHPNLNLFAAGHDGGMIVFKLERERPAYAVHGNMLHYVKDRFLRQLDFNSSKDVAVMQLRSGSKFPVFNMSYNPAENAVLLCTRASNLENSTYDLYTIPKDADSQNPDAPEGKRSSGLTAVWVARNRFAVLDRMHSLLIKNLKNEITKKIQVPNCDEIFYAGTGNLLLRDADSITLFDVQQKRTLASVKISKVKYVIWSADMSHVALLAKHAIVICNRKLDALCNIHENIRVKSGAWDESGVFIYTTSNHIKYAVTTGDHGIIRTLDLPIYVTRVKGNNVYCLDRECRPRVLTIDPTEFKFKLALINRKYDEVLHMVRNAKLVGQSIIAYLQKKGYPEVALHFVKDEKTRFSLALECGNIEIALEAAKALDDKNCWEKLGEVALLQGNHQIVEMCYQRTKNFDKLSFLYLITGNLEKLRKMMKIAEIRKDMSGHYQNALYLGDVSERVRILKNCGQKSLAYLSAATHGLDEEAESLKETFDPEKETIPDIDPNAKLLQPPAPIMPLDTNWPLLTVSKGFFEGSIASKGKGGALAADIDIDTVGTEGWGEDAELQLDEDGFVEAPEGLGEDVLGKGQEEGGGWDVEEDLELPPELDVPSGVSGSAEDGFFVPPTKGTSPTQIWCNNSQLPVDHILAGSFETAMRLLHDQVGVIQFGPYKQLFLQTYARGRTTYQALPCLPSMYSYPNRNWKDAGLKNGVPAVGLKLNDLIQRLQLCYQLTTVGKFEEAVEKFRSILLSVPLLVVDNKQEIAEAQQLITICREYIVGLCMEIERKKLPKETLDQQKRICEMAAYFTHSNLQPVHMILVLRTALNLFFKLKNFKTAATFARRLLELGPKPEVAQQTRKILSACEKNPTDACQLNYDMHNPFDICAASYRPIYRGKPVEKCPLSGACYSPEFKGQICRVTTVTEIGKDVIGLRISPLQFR
Chain of Canx (mouse) (P35564 21-591 limits assumed): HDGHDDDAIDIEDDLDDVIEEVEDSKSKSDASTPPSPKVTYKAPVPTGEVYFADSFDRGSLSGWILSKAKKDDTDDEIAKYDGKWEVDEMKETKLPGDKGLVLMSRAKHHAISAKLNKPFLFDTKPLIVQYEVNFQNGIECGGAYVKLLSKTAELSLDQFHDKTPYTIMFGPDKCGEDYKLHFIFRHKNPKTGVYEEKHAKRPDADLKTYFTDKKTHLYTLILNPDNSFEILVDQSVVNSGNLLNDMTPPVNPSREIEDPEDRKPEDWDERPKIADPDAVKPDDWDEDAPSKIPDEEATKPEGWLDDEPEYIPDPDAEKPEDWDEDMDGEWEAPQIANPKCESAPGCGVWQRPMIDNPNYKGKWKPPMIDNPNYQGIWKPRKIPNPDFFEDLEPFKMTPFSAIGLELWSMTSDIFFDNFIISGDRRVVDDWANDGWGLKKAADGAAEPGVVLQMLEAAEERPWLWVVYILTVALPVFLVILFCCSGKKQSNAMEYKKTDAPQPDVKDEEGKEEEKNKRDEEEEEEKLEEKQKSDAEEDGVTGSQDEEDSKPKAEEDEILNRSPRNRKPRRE
Chain of Uba2 (mouse) (Q9Z1F9 whole entry): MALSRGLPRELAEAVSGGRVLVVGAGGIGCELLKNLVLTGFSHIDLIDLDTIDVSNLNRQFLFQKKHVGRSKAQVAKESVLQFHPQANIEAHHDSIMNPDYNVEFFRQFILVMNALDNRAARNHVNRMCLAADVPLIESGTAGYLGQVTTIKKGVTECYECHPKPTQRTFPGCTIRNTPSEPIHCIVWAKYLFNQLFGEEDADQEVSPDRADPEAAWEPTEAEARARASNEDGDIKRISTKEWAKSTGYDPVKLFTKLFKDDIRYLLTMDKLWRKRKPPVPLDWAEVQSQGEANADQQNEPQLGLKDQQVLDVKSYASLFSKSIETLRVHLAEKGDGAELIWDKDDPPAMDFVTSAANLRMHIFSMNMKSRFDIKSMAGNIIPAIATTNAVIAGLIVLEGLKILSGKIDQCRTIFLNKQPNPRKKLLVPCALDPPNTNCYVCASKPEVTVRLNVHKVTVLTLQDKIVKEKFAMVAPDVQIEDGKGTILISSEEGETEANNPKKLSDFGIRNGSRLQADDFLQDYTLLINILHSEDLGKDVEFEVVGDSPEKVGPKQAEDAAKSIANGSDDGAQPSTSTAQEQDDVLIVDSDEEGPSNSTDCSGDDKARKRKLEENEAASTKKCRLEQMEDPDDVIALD
Chain of Cul4b (mouse) (A2A432 whole entry): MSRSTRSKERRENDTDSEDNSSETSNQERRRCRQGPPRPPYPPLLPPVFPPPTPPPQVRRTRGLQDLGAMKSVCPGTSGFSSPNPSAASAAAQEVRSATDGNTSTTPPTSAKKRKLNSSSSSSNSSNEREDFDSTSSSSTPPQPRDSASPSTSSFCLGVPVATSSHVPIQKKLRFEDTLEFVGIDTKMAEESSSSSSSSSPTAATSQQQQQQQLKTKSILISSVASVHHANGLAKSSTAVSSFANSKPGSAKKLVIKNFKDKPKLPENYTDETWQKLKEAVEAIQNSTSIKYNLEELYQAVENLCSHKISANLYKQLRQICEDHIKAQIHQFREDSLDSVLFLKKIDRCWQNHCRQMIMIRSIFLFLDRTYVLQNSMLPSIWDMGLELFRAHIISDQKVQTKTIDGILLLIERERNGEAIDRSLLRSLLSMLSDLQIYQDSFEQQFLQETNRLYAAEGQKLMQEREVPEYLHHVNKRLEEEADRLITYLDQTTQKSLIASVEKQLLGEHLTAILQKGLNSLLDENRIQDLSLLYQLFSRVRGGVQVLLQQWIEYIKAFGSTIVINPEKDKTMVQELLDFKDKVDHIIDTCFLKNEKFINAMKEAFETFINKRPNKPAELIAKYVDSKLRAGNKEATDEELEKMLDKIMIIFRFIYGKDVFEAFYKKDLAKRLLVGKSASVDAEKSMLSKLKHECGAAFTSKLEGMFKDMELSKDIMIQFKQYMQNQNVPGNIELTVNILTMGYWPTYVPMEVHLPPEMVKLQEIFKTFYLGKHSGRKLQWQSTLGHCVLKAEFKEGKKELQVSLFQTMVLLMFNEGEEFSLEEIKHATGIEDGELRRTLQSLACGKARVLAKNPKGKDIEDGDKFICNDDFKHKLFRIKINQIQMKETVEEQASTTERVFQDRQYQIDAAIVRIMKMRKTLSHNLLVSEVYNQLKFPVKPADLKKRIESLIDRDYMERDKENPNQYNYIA
Chain of Hmga1 (mouse) (P17095 2-107 limits assumed): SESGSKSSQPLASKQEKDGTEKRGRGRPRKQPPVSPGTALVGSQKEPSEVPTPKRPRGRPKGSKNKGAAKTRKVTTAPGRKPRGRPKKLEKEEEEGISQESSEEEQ

Nucleus peptide (Atxn2l (mouse)): 2 peptides
Nucleus spectra (Atxn2l (mouse)): 3 spectra
Nucleus peptide (Canx (mouse)): 2 peptides
Nucleus spectra (Canx (mouse)): 2 spectra
Nucleus peptide (Cbx5 (mouse)): 2 peptides
Nucleus spectra (Cbx5 (mouse)): 3 spectra
Nucleus peptide (Cct7 (mouse)): 0 peptides
Nucleus spectra (Cct7 (mouse)): 0 spectra
Nucleus peptide (Cct8 (mouse)): 6 peptides
Nucleus spectra (Cct8 (mouse)): 10 spectra
Nucleus peptide (Copa (mouse)): 1 peptides
Nucleus spectra (Copa (mouse)): 4 spectra
Nucleus peptide (Cul4b (mouse)): 0 peptides
Nucleus spectra (Cul4b (mouse)): 0 spectra
Nucleus peptide (Emd (mouse)): 1 peptides
Nucleus spectra (Emd (mouse)): 1 spectra
Nucleus peptide (Eno2 (mouse)): 1 peptides
Nucleus spectra (Eno2 (mouse)): 2 spectra
Nucleus peptide (Gart (mouse)): 2 peptides
Nucleus spectra (Gart (mouse)): 3 spectra
Nucleus peptide (Gcn1l1 (mouse)): 3 peptides
Nucleus spectra (Gcn1l1 (mouse)): 5 spectra
Nucleus peptide (Hells (mouse)): 1 peptides
Nucleus spectra (Hells (mouse)): 1 spectra
Nucleus peptide (Hmga1 (mouse)): 1 peptides
Nucleus spectra (Hmga1 (mouse)): 8 spectra
Nucleus peptide (Hspa5 (mouse)): 10 peptides
Nucleus spectra (Hspa5 (mouse)): 13 spectra
Nucleus peptide (Mcm2 (mouse)): 4 peptides
Nucleus spectra (Mcm2 (mouse)): 5 spectra
Nucleus peptide (Mcm3 (mouse)): 5 peptides
Nucleus spectra (Mcm3 (mouse)): 7 spectra
Nucleus peptide (Mllt4 (mouse)): 1 peptides
Nucleus spectra (Mllt4 (mouse)): 2 spectra
Nucleus peptide (Nars (mouse)): 3 peptides
Nucleus spectra (Nars (mouse)): 3 spectra
Nucleus peptide (Nasp (mouse)): 1 peptides
Nucleus spectra (Nasp (mouse)): 1 spectra
Nucleus peptide (Ncapd2 (mouse)): 1 peptides
Nucleus spectra (Ncapd2 (mouse)): 1 spectra
Nucleus peptide (Nsd1 (mouse)): 1 peptides
Nucleus spectra (Nsd1 (mouse)): 2 spectra
Nucleus peptide (Nup188 (mouse)): 2 peptides
Nucleus spectra (Nup188 (mouse)): 3 spectra
Nucleus peptide (Nup214 (mouse)): 7 peptides
Nucleus spectra (Nup214 (mouse)): 11 spectra
Nucleus peptide (Pcbp1 (mouse)): 2 peptides
Nucleus spectra (Pcbp1 (mouse)): 6 spectra
Nucleus peptide (Peg10 (mouse)): 2 peptides
Nucleus spectra (Peg10 (mouse)): 2 spectra
Nucleus peptide (Pfn1 (mouse)): 4 peptides
Nucleus spectra (Pfn1 (mouse)): 9 spectra
Nucleus peptide (Prpf4b (mouse)): 0 peptides
Nucleus spectra (Prpf4b (mouse)): 0 spectra
Nucleus peptide (Racgap1 (mouse)): 3 peptides
Nucleus spectra (Racgap1 (mouse)): 3 spectra
Nucleus peptide (Rbm25 (mouse)): 3 peptides
Nucleus spectra (Rbm25 (mouse)): 7 spectra
Nucleus peptide (Rcc1 (mouse)): 3 peptides
Nucleus spectra (Rcc1 (mouse)): 6 spectra
Nucleus peptide (Rif1 (mouse)): 8 peptides
Nucleus spectra (Rif1 (mouse)): 17 spectra
Nucleus peptide (Sfrs17b (mouse)): 2 peptides
Nucleus spectra (Sfrs17b (mouse)): 2 spectra
Nucleus peptide (Smarcc1 (mouse)): 4 peptides
Nucleus spectra (Smarcc1 (mouse)): 4 spectra
Nucleus peptide (Smc3 (mouse)): 0 peptides
Nucleus spectra (Smc3 (mouse)): 0 spectra
Nucleus peptide (Smc4 (mouse)): 1 peptides
Nucleus spectra (Smc4 (mouse)): 2 spectra
Nucleus peptide (Ssrp1 (mouse)): 2 peptides
Nucleus spectra (Ssrp1 (mouse)): 4 spectra
Nucleus peptide (Tmem48 (mouse)): 1 peptides
Nucleus spectra (Tmem48 (mouse)): 1 spectra
Nucleus peptide (Ttf1 (mouse)): 1 peptides
Nucleus spectra (Ttf1 (mouse)): 1 spectra
Nucleus peptide (Uba2 (mouse)): 2 peptides
Nucleus spectra (Uba2 (mouse)): 2 spectra
Nucleus peptide (Xpo1 (mouse)): 0 peptides
Nucleus spectra (Xpo1 (mouse)): 0 spectra
Substance: 2x Flag tag only (control) (peptide)

Nucleus peptide (Atxn2l (mouse)): 4 peptides
Nucleus spectra (Atxn2l (mouse)): 9 spectra
Nucleus peptide (Canx (mouse)): 7 peptides
Nucleus spectra (Canx (mouse)): 23 spectra
Nucleus peptide (Cbx5 (mouse)): 4 peptides
Nucleus spectra (Cbx5 (mouse)): 12 spectra
Nucleus peptide (Cct7 (mouse)): 3 peptides
Nucleus spectra (Cct7 (mouse)): 5 spectra
Nucleus peptide (Cct8 (mouse)): 12 peptides
Nucleus spectra (Cct8 (mouse)): 31 spectra
Nucleus peptide (Copa (mouse)): 5 peptides
Nucleus spectra (Copa (mouse)): 9 spectra
Nucleus peptide (Cul4b (mouse)): 4 peptides
Nucleus spectra (Cul4b (mouse)): 7 spectra
Nucleus peptide (Emd (mouse)): 4 peptides
Nucleus spectra (Emd (mouse)): 10 spectra
Nucleus peptide (Eno2 (mouse)): 3 peptides
Nucleus spectra (Eno2 (mouse)): 7 spectra
Nucleus peptide (Gart (mouse)): 5 peptides
Nucleus spectra (Gart (mouse)): 7 spectra
Nucleus peptide (Gcn1l1 (mouse)): 14 peptides
Nucleus spectra (Gcn1l1 (mouse)): 24 spectra
Nucleus peptide (Hells (mouse)): 6 peptides
Nucleus spectra (Hells (mouse)): 13 spectra
Nucleus peptide (Hmga1 (mouse)): 5 peptides
Nucleus spectra (Hmga1 (mouse)): 18 spectra
Nucleus peptide (Hspa5 (mouse)): 13 peptides
Nucleus spectra (Hspa5 (mouse)): 30 spectra
Nucleus peptide (Mcm2 (mouse)): 9 peptides
Nucleus spectra (Mcm2 (mouse)): 21 spectra
Nucleus peptide (Mcm3 (mouse)): 9 peptides
Nucleus spectra (Mcm3 (mouse)): 22 spectra
Nucleus peptide (Mllt4 (mouse)): 7 peptides
Nucleus spectra (Mllt4 (mouse)): 11 spectra
Nucleus peptide (Nars (mouse)): 7 peptides
Nucleus spectra (Nars (mouse)): 16 spectra
Nucleus peptide (Nasp (mouse)): 5 peptides
Nucleus spectra (Nasp (mouse)): 9 spectra
Nucleus peptide (Ncapd2 (mouse)): 10 peptides
Nucleus spectra (Ncapd2 (mouse)): 22 spectra
Nucleus peptide (Nsd1 (mouse)): 4 peptides
Nucleus spectra (Nsd1 (mouse)): 5 spectra
Nucleus peptide (Nup188 (mouse)): 4 peptides
Nucleus spectra (Nup188 (mouse)): 7 spectra
Nucleus peptide (Nup214 (mouse)): 13 peptides
Nucleus spectra (Nup214 (mouse)): 29 spectra
Nucleus peptide (Pcbp1 (mouse)): 5 peptides
Nucleus spectra (Pcbp1 (mouse)): 13 spectra
Nucleus peptide (Peg10 (mouse)): 3 peptides
Nucleus spectra (Peg10 (mouse)): 5 spectra
Nucleus peptide (Pfn1 (mouse)): 5 peptides
Nucleus spectra (Pfn1 (mouse)): 21 spectra
Nucleus peptide (Prpf4b (mouse)): 3 peptides
Nucleus spectra (Prpf4b (mouse)): 7 spectra
Nucleus peptide (Racgap1 (mouse)): 6 peptides
Nucleus spectra (Racgap1 (mouse)): 7 spectra
Nucleus peptide (Rbm25 (mouse)): 6 peptides
Nucleus spectra (Rbm25 (mouse)): 15 spectra
Nucleus peptide (Rcc1 (mouse)): 7 peptides
Nucleus spectra (Rcc1 (mouse)): 16 spectra
Nucleus peptide (Rif1 (mouse)): 37 peptides
Nucleus spectra (Rif1 (mouse)): 109 spectra
Nucleus peptide (Sfrs17b (mouse)): 3 peptides
Nucleus spectra (Sfrs17b (mouse)): 8 spectra
Nucleus peptide (Smarcc1 (mouse)): 6 peptides
Nucleus spectra (Smarcc1 (mouse)): 10 spectra
Nucleus peptide (Smc3 (mouse)): 12 peptides
Nucleus spectra (Smc3 (mouse)): 23 spectra
Nucleus peptide (Smc4 (mouse)): 5 peptides
Nucleus spectra (Smc4 (mouse)): 7 spectra
Nucleus peptide (Ssrp1 (mouse)): 9 peptides
Nucleus spectra (Ssrp1 (mouse)): 18 spectra
Nucleus peptide (Tmem48 (mouse)): 3 peptides
Nucleus spectra (Tmem48 (mouse)): 4 spectra
Nucleus peptide (Ttf1 (mouse)): 3 peptides
Nucleus spectra (Ttf1 (mouse)): 4 spectra
Nucleus peptide (Uba2 (mouse)): 5 peptides
Nucleus spectra (Uba2 (mouse)): 5 spectra
Nucleus peptide (Xpo1 (mouse)): 4 peptides
Nucleus spectra (Xpo1 (mouse)): 6 spectra
Substance: human AID containing two tandem Flag tags (Flag-human AID) (from UniProt Q9GZX7 1-198) (enzyme)
